In the nanobody polyreactivity screen of Harvey et al. (2022):

Assay: yeast display, Sf9 membrane polyspecificity reagent, FACS + sequencing; frameworks hold sequencing errors
Procedure, shortened: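 Galactose-induced (36–48 hours) yeast carrying a synthetic nanobody display library were exposed to 10% biotinylated, detergent-solubilized Sf9 membrane reagent at 4 °C for 1 hour. FACS followed streptavidin microbead enrichment, using low and high (top ~1%) gates for expression (anti-HA) and reagent binding (streptavidin). Colony PCR, MiSeq 2 × 250 sequencing and CDR-length filtering followed. Labels for polyreactivity reflect the gate of origin.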

Sequence	polyreactivity (PSR sort gate)
QVQLVESGGGLVQAGGSLRLSCAASGSIFLIYAMGWYRQAPGKERELVAAISSGGSTYYADSVKGRFTISRDNAKNTVYLQMNSLKPEDTAVYYCAARYVERHTDYYYWGQGTQVTVSS	low polyreactivity
QVQLVESGGGLVQAGGSLRLSCAASGIIIDYYAMGWYRQAPGKERELVAAITSGGSTSYADSVKGRFTISRDNAKNTVYLQMNSLKPEDTAVYYCNTEPSGYESGYWGQGTQVTVSS	low polyreactivity
QVQLVESGGGLVHAGGSLRLSCAASGFTFDSNDKGWYRQAPGKERELVAAISTGGSTYYADSVKGRFTISRDNAKNTVYLQMNRLKPEDTAVYYCARDPPYPDTWYGYWGQGSQVTVSS	low polyreactivity
QVQLVESGGGLVQAGGSLRLSCAASGIIFENYAMGWYRQAPGKERELVAAISAGGAITYYADSVKGRFTISRDNAKNTVYLQMNSLKPEDTAVYYCNAKSYRHLLYIPYKYNYWGQGTQVTVSS	high polyreactivity
QVQLVESGGCLVQAGGSLRLSCAASGSIFSRNVMGWYRKAPGKERELVAAITGSGGRTYYADSVKGRFTISRDNAKNTVYLQMNSLKPEDTAVYYCAKSRPGTYDYWGPGTQVTVSS	high polyreactivity
QVQLVESGGGLVQAGGSLRLSCAASGSTFDYYAMGWYRPAPGKERELVAGINRDDGNTYYADSVKGRFTISRDNAKNTVYLQMNSLKPEDTAVYYCAADSSWQGMDYSGQGTQVTVSS	low polyreactivity
QVQLVESGGGLVQAGGSLRLSCAATGFTFIHYGMGWYRQAPGKERELVAAITWRGDRTYADSVKGRFTISRDNANNTVYLQMNSLKPEDTAVYYCAAVSANQDFDYWGQGTQVTVSS	high polyreactivity
QVQLVESGGGLVQAGGSLRLSCAASGRIFYPYAMGWYRQAPGKERELVAAISWSTGNTYYADSVKGRFTISRDNAKNTVYLQMNSLKPEDTAVYYCNARLAPVRRYWYSGYDYWGQGTQVTVSS	high polyreactivity
QVQLVESGGGLVQAGGSLRLSCAASGLTFTRYTMGWYRQAPGKERELVAAITSSGGSTYYADSVKGRFTISRDNAKNTVYLQMNSLKPEDTAVYYCAARYPGTRGDGYWGQGTQVTVSS	high polyreactivity
QVQLVESGGGLVQAGGSLRLICAASGYIFYDYAMGWYRQAPGKERQLVATITSGGRTYADSVKGRFTISRDNAKNTVYLQMNSLKPEDTAVYYCAVDQYGAMDYWGQGTQVTVSS	low polyreactivity
QVQLVESGGRLVQARGSLRLSCAASGRIFYDYAMGCYRQAPGKESELVAAISGSGGSTYYADSVKGRFTISRDNAKNTVYLQMNSLKPEDTAVYYCNRYTTRYYPGGDYWGQGTQVTVSS	high polyreactivity
QVQLVESGGGLVQAGGSLRLSCAPSGRIFVLYTMGWYRQAPGKERELVAAIRGGGSTNYADSVKGRFTISRDNAKNTVYLQMNSLKPEDTAVSYCAARYYREYDYWGQGTQVTVSS	high polyreactivity
QVQLVESGGGLVQAGGSLRLSCATSGNIFWRYSIRWYRQAPGKEREFVAGISLRGSSTYYADSVKGRFTISRDNAKNTVYLEMNSLKPEDTAVYYCAVRQPRGSTVFYGGNYWGQGTQVTVSS	low polyreactivity
QVQLVESGGGLVQAGGSLRLSCAASGSILEVYAMGWYRQAPGKERELVAAISDGDSTYYADSVKGRFTISRDNAKNTVYLQMNSLKPEDTAVYYCAAEFVGTLWWYDDWGQGTQVTVSS	low polyreactivity
QVQLVESGGGLVQAGGSLRLSCAASGSTFWDYAMGWYRQAHGKERELVAAITDSGGSTYYADSVKGRFTISRDNAKNTVYLQMNSLKPEDTAVYYCAAEAYIWWAWEYEYWGQGPQVTVSS	high polyreactivity
QDQLVESGGGLVQAGGSLRLSCAASGRILKYNAMGWYRQAPGKERELVAAISYRGGSTYYADSVKGRFTISRDNAMNTVYLQMNSLKPEDTAVYYCNAGGGILNGPLFDYWGQGTQVTVSS	low polyreactivity
QVQLVESGGGLVQAGGSLRLSCAASGFTFGRYAMGWYRQAPGKERELVAAITRGSGGSYYADSVKGRFTISRDIAKNTVYLQMNSLKPDDTAVYYCATGSRSRGALRYAHFDYWGQGTQVTVSS	high polyreactivity
QVHLVESGGGLVQAGGSLRLSCAASGFNLLPYALGWYRQAQGKERELVATINSGDSTYADSVKGRFTISRDNAKNTVYLQMNSLKPEDTAVYYCNAYWLVVPVDLDYWGQGTQVTVSS	low polyreactivity
QVQLVESGGGLVQAGGSLRLSCAASGRTITYYAMGWYRQAPGKERELVAAISSAGRTNYAVSVKGRFTISRDNAKNTVYLQMNCLKPEDTAVYYCAKRYGWASGYWNSNYGYLYDYWGQGTLVTVSS	high polyreactivity
QVQLVESGGGLVQAGGSLRLSCAASGSTFKPNVMGWSRLAPGKERELVAAITSTDDPTYYADSVKGRFSISRDNAKNTVYLQMNSLKPEDTAVDYCAVESLRDDFEYDYWGQGTQVTVSS	low polyreactivity
QVQLVESGGGLVEAGGSLRLSCAASGSTFGSNAMGWYRQGPGKARELVARISKRGGSTYYADSVKGRFTISRDKAKNTVSIQINSLKPDDTAVYYCNVRSWWGYTGPYDYWRQGTQVTVSS	high polyreactivity
QVQLVESGRGLVQAGGSLRLSCAASGSTFNRNAMGWYRQAPGKERELVAAITIRGGSTSYADSVKGRFTISRDNAKNTVYLQMNSLKPEDTAVYYCNRQSRNAGGYYWGQGTHVTVSS	low polyreactivity

Sequence	polyreactivity (PSR sort gate)
QVQLVESGGGLVQAGGSLRLSCAASGSIFSDYAMGWYRQAPGKERELVAAITQSGGSTYADSVKGRFTISRDNAKNTVYLQMNSLKPEDTAVYYCAADEVPGFGYPPYPWFDYWGQGTQVTVSS	low polyreactivity
QVQLVESGGGLVQAGGSLRLSCAASGRIFRYYAMGWYRQAPGKERELVAVISSSGGSTNYADSVKGRFTISRDNAKNTVYLQMNSLKPEDTAVYYCNAYGAYGGTGDYWGQGTQVTVSS	high polyreactivity
QVQLVESGGGLVQAGGSLSLTCAASGITFPRNAMGWSRQAPGKERELVAAISARGGNTYYADSVKGRFTISRDNSKNTVYLQMNSLKPEDTAVYYCNALGSSYSEPSEYDYWGQGTQVTVSS	low polyreactivity
QVQLEESGGGLVQAGGSLRLSCAASGSIFYSYAMGWYRQAPGKERELVAAINWSGGSTYYADSVKGRFTISRDNAKNTFYFQMNSLKPQDTAVYYCAADYGWGPIYDYWGQGTQVNVSS	low polyreactivity
QVQLVESGGGLVQAGGSLRLSCAASGFTFGGNAMGWYRQAPGKERELVADITWSGGSTYYADSVKGRFTISRDNAKNTVYLQMNSLKPEDTAVYYCNTVRYPSSNSGLDYWGQGTQVTVSS	high polyreactivity
QVQLVESGGGLVQAGGSLRLSCAASGRTFTHYAMGWYRQAPGKERELVAAISWSGGRTYYADSVKGRFTISRDNAKNTVYLQMNSLKPEDTAVYYCAADAFRGFYWGQGTQVTVSS	high polyreactivity
QVQLVESGGGLVQAGGSLRLSCAASGSIFLSNMGWYREAPGKQRELVAAITIGGSTDYADSVKGRFTISRDNAKNTVFLQMNSLKPEDTAVYYCNADNPYSDGADSLGNYWGHGTQVTVSS	low polyreactivity
QVQLVESGGGLVQAGGSLRLSCAASGRIFGGYTMGWYRQAPGKERELVASINSGGSTAYADSVKGRFTISRDNAKNTVYLQMNSLKPEDTAVYYCAKRYAQTYSVSRYYYWGQGTQVTVSS	high polyreactivity
QVQLVESWGGLVQAGGSLRLSCAASGFTLTPYAMGWYRQAPGKERELVAASRWSGGSTYYADSVKGRFTISRDNAKNTVYLQMNSLKPEDTAVYYCAARYAYRPVNGYKYWGQGTQVTVSS	high polyreactivity
QVQLVESVGGLVQAGGSLRLSCAASGGIFNTYAMGWYRQAPGKEREFVAANSRRGGGTYYADSVKGRFTISRDNAKNTVYLQMNSLKPEDTAVYYCNADVKRGSRGYGSDHWGQGTQVTVSS	high polyreactivity
QVQLVESGGGLVQAGGSLRLSCAASGSIFTRYAMGWYRQAPGKERELVAAITKSGSRTYYADSVKGRSTISRDNAKNTVYLQMNSLKPEDTAVYYCATLQGDSSSQYDYWGQGTQVTVSS	high polyreactivity
QLQLVESGRGLVQAGVSLRLSCAASGFIFEDYAMGCYRTAPGNDRELVAAISRRGGSTYYADSVKGRFTISRYNAKKTVYLQMNSLKPEDTAVYYCAAYYPYSGKGGYDYWGQGTQVTVSS	high polyreactivity
QVQLVESGGGLVQAGGSLRLSCAASGFTFYYYTMGWYRQAPGKERELVAGITSRGGSTTYADSVKGRFTISRDNAKNTVYLQMNSLKPEDTAVYYCNARWAVHSGYDYWGQGTLVTVSS	high polyreactivity
QDQLVESGGGLVQAGGSLSLSCAASGQTFYQYAMGWYRQAPGKERELVAAISKSAGSTYYADSVKGRFTISRDNAKNTVYLQMNSLKPEDTAVYYCVARVLRLRYDYWGQGTQVSVSS	high polyreactivity
QVQLVESGGGLVQAGGSLRLSCAASGSTFQLYVMGWYRQAPGKERELVAAIDDGGGSTYYADSVKGRFTISRDNAKNTVYLQMNSLKPEDTAVYYCARRYGYFGYEYDYWGQGTQVTVSS	high polyreactivity
QVQLVESGGGLVQAGGSLRLSCAASGIIIDSNAMGWYRQAPGKERELVADITSGGSTKYADSVKGRFTISRDNAKNTVYLQMNSLKPEDTAVYYCNADFRPADQWSYFYEMDSWGQGTQVTVSS	low polyreactivity
QVQLVESGGGLVQAGGSLRLSCAASGIIFRRYARGWYRQAPGKERELVAAITRGGITYYADSVKGRFTISRDNAKNTVYLQMNSLKPEDTAVYYCAATYSGTYSLGGGYDYWGQGTQVTVSS	low polyreactivity
QVQLVESGGGLVQAGGSLRLSCAASGSTFRFYAMGWYRQAPGKERELVAAISSGGSTYYADSVKGRFTISRDNAKNTVYLQMNSLKPEDTAVYYCNARLYYSTFRYYYWGQGTQVTVSS	high polyreactivity
QVQLVESGGGLVQAGGSLRLICAASGIIFYVYAMGWYRQAPGKERELVAAISFRGTSTYADSVKGRFTISRDNAKNTVYLQLNSLKPEDTAVYYCAVTGFDVLWPSLGGVLDYWGQGTQVTVSS	low polyreactivity
QVHLVESGGWLVQAGGSLRLSCAASGRTFHVYAMGWYRQAPGKERELVAAITWSGDSTYYADSVKGRFTISRDNAKNTVYLQMNSLKPEDTAVYYCAASQFWKYDYWGQGTQVTVSS	low polyreactivity
QGQLVESGGGLVQAGGSLRLSCAASGSTFTYNAMGWYRQAPGKERELVASISSGTTTYYADSVKGRFTISRDNAKNTVYLQMNSLKPEDTAVYYCAVDSWSRVQGWLAHNYDYWGQGTQVTVSS	low polyreactivity
